Laboratory results taken from US20260049134A1 (UNIVERSITY OF FLORIDA RESEARCH FOUNDATION, published 2026).

T1: HHLA2 (B7-H7)
T1 construct: coated protein in the ELISA; also called HHLA2-Fc (R&D Systems)
T1 chain: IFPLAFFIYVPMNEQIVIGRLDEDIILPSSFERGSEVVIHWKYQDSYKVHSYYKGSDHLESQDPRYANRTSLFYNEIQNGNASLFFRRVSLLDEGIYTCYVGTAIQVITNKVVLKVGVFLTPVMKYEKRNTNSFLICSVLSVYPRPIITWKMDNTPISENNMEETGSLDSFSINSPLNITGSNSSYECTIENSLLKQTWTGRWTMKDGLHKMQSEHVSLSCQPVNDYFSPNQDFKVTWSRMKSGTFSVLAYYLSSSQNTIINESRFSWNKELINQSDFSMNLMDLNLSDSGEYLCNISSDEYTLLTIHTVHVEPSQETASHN

T2: ANXA1
T2 construct: coated protein in the ELISA; also called ANXA1-His (R&D Systems)
T2 chain: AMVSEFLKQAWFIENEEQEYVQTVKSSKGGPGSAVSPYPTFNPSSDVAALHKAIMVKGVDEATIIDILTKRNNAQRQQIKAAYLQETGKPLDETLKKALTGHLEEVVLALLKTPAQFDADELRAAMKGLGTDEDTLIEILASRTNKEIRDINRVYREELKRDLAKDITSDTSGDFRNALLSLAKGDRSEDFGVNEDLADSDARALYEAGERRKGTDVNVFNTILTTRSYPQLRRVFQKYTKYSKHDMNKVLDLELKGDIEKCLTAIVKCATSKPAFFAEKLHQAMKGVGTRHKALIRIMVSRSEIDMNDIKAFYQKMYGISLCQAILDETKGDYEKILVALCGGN

T3: IGSF11 (VSIG3)
T3 construct: coated protein in the ELISA; also called IGSF11-Fc (R&D Systems)
T3 chain: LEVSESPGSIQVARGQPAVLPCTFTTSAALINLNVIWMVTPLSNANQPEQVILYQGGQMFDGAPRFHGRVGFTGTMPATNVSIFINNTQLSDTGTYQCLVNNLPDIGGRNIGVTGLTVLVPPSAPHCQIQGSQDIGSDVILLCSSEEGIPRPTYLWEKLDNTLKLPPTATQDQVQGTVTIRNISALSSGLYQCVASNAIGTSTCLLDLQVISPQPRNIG

T4: PTPRG-Fc (ECD of human PTPRG, aa 20-736, fused to human Fc gamma 1) (human, UniProt P23470 20-736)
T4 construct: Made in-house in Expi293 cells; Used in ELISA and SPR; also called recombinant PTPRG-Fc; PTRPG; not shown: human IgG1 Fc (Fc gamma 1) after the hinge
T4 sequence: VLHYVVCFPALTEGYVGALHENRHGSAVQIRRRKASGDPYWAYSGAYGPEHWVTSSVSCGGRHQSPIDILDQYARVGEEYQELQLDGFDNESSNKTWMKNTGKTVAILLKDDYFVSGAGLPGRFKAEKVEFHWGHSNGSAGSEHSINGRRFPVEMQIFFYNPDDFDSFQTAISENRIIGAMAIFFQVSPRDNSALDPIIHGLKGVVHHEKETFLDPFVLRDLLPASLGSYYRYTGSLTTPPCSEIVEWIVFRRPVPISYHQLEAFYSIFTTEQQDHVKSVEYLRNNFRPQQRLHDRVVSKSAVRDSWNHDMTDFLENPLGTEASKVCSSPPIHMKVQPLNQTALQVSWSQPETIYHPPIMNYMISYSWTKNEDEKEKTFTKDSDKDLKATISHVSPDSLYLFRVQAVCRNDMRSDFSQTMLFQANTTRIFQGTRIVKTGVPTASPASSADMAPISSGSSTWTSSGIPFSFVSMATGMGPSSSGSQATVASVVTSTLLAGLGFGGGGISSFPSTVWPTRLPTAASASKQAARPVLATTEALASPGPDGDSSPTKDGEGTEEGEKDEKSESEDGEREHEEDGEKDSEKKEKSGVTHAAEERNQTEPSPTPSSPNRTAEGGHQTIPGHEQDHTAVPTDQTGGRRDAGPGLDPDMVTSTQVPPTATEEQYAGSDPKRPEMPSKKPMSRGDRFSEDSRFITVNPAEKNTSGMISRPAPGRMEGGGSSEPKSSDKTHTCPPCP


Assays:
HHLA2 (B7-H7) [1] = target: T1, HHLA2 (B7-H7); assay: ELISA on coated HHLA2-Fc
Method: (§1) Recombinant purified ECDs (50-150 ng) of each putative target protein were coated, incubated with 150 ng of the indicated primary antibody, and binding was detected using a peroxidase-conjugated anti-human Fab secondary antibody. Heatmap represents averages of technical triplicates. (8B) Target validation via siRNA knockdown. H929 cells were transfected with siRNA pools targeting the putative antibody targets ICAM1, CADM1, and PTPRG. Cells were then subjected to cognate IgG binding analysis via flow cytometry. (NT, non-targeting siRNA).
(§2) ELISA ELISA was conducted as described previously. Briefly, 50-150 ng of antigen was coated overnight in half-area 96-well plates at 4° C., blocked with 3% BSA at 37° C. for 1 h, and 150 ng of chimeric rabbit/human IgG1 was added, incubating for 2 h at 37° C. […] After incubating at 37° C. for 15 min-1 h (depending on intensity of controls), data were acquired using a SpectraMax M5 plate reader (Molecular Devices).

ANXA1 [2] = target: T2, ANXA1; assay: ELISA on coated ANXA1-His
Method: as §1, §2

IGSF11 (VSIG3) = target: T3, IGSF11 (VSIG3); assay: ELISA on coated IGSF11-Fc
Method: as §1, §2

PTP4A3 (PRL-3) [3] = target: T5, PTP4A3 (PRL-3); assay: ELISA on coated His-PTP4A3
T5 construct: coated protein in the ELISA; also called His-PTP4A3 (R&D Systems)
T5 sequence (chain, as listed by the source limits assumed): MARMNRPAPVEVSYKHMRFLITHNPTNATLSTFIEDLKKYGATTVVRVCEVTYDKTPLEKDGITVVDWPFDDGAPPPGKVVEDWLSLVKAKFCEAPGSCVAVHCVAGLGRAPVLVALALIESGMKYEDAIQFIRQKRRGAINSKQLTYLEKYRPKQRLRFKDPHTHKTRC
Method: as §1, §2

APP = target: T6, APP; assay: ELISA on coated APP-His, 150 ng IgG1; None 0.092
T6 construct: His-tagged; coated protein in the ELISA; also called APP-His (Acro Biosystems)
Method: as §1, §2

HHLA2 (B7-H7) [4] = target: T1, HHLA2 (B7-H7); assay: ELISA on coated HHLA2-Fc, 150 ng IgG1; None 0.087
Method: as §1, §2

ICAM1-Fc (R&D Systems) = target: T7, ICAM1-Fc (R&D Systems) (human, UniProt P05362 28-480); assay: ELISA on coated ICAM1-Fc, 150 ng IgG1; None 0.060
T7 construct: Bought; also called ICAM-1/CD54; not shown: Fc of the bought fusion protein
T7 sequence (P05362 28-480): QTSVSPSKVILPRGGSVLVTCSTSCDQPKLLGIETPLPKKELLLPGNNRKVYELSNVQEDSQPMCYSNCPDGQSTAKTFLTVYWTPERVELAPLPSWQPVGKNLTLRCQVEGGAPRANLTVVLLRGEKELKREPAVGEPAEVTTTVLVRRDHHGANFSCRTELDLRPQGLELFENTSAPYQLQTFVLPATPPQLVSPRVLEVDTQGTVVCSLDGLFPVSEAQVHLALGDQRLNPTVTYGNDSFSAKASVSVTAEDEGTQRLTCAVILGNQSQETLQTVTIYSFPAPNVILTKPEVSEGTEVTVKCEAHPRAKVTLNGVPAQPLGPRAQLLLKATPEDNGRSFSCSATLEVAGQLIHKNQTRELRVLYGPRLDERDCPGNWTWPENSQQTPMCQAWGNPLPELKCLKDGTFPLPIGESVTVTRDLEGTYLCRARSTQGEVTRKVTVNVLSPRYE
Method: as §1, §2

[5] = target: T4, PTPRG-Fc (ECD of human PTPRG, aa …); assay: ELISA on coated PTPRG-Fc, 150 ng IgG1; None 0.117
Method: as §1, §2

ANXA1 [6] = target: T2, ANXA1; assay: ELISA on coated ANXA1-His, 150 ng IgG1; None 0.098
Method: as §1, §2

PTP4A3 (PRL-3) [7] = target: T5, PTP4A3 (PRL-3); assay: ELISA on coated His-PTP4A3, 150 ng IgG1; None 0.085
Method: as §1, §2

| ELISA Absorbance (405 nm-570 nm) (APP) | ELISA Absorbance (405 nm-570 nm) (HHLA2 (B7-H7) [4]) | ELISA Absorbance (405 nm-570 nm) (ICAM1-Fc (R&D Systems)) | ELISA Absorbance (405 nm-570 nm) [5] | ELISA Absorbance (405 nm-570 nm) (ANXA1 [6]) | ELISA Absorbance (405 nm-570 nm) (PTP4A3 (PRL-3) [7]) | Binder | binding result (HHLA2 (B7-H7) [1]) | binding result (ANXA1 [2]) | binding result (IGSF11 (VSIG3)) | binding result (PTP4A3 (PRL-3) [3]) |
| --- | --- | --- | --- | --- | --- | --- | --- | --- | --- | --- |
| 0.082 | 0.086 | 0.077 | 0.106 | 0.09 | 0.092 | TH9-0022 (antibody, human IgG1, kappa, L234A L235A, V domains shown, also called TH9-022; negative control) VH: QSLEESGGRLVTPGTPLTLTCTVSGFSLSSYAMNWVRQAPGKGLEWIGIINSYGSTYYASWAKGRFTISKTSTTVDLKITSPTTEDTATYFCARVTYDSYGYGYAPYGMDLWGPGTLVTVSS VL: LVMTQTPSSTSNAVGGTVTIKCQASQSIGNVLAWYQQKPGQPPKLLIYAASTLASGVPSRVGGSRSGTEYTLTISGVQREDAATYYCLGSDSDSDIAFGGGTELEILR | no binding (tested: 150 ng IgG1 per well) | no binding (tested: 150 ng IgG1 per well) | no binding (tested: 150 ng IgG1 per well) | no binding (tested: 150 ng IgG1 per well) |
| 0.087 | 0.097 | 0.082 | 0.341 | 0.103 | 0.096 | HW-42 chimeric rabbit-human IgG1 LA/LA/PG (antibody, V domains shown, Fc-silenced (L234A/L235A/P329G) IgG1, lambda; Alexa Fluor 647-labeled in single-step flow cytometry; Cluster C-1) VH: QSVKESEGGLFKPADTLTLTCTVSGFSLSSNEISWVRQAPGEGLEYIGIIDTGGRAYYAVWARSRSTITRNTNLNTVTLKMTSLTAADTATYFCARGGVDTEWYAFSSWGPGTLVTVPS VL: SFVLTQPASVQVNLGQTVSLTCTADTLSRRYASWYQQKPGQAPVLLIFRDTSRPSGVPDRFSGSSSGDTATLTISGAQAGDEADYYCATSDGSGSNYQYVFGGGTQLTVTG | no binding (tested: 150 ng IgG1 per well) | no binding (tested: 150 ng IgG1 per well) | no binding (tested: 150 ng IgG1 per well) | no binding (tested: 150 ng IgG1 per well) |
| 0.233 | – | – | – | – | – | HW-45 chimeric rabbit-human IgG1 LA/LA/PG (antibody, V domains shown, Fc-silenced (L234A/L235A/P329G) IgG1, lambda; Alexa Fluor 647-labeled in single-step flow cytometry; Prototype of cluster C-45) VH: QKQLVESGGRLVTPGTPLTLTCTVSGFSLSSYAMGWFRQAPGKGLEWIGIINSYGSTYYASWAKGRFTISKTSTTVDLKITSPTTEDTATYFCGRRIGSARFDPWGPGTLVTVSS VL: SFVLTQPASVQVNLGQTVSLTCTADTLSRSYASWYQQKPGQAPVLLIYRDTRRPSGVPDRFSGSSSGNTATLTISGAQAGDEADYYCATSDGSGSSYRLVFGGGTQLTVTG | – | – | – | – |
| 0.144 | 0.122 | 0.085 | 0.121 | 0.153 | – | HW-28 chimeric rabbit-human IgG1 LA/LA/PG (antibody, V domains shown, Fc-silenced (L234A/L235A/P329G) IgG1, lambda; Alexa Fluor 647-labeled in single-step flow cytometry; Cluster C-45) VH: QKQLVESGGRLVTPGTPLTLTCTASGFSLSSNAMSWVRQAPGEGLQWIGTISSGGSTYYASWAKGRFTISKTSTTVTLKMTSLTTEDTATYFCARGADLHRLWGPGTLVTVSS VL: SFVLTQPASVQVNLGQTVSLTCTGKPLSRSFASWYQQKPGQAPVLVIYRDTSRPSGVPDRFSGSSSGNTATLTISGAQAGDEADYYCATSDGSGSSYQYVFGGGTQLTVTG | – | – | – | – |
| 0.225 | 0.092 | 0.055 | – | 0.111 | 0.105 | HW-16 chimeric rabbit-human IgG1 LA/LA/PG (antibody, V domains shown, Fc-silenced (L234A/L235A/P329G) IgG1, kappa; Alexa Fluor 647-labeled in single-step flow cytometry; Cluster C-45) VH: QSLEESGGRLVTPGTPLTLTCTASGFSLSSYAMSWVRQAPGKGLEWIGTMPTGGGTYYASWAKGRFTISKTSTTVDLQITSPTTEDTATYFCAKHWNIWGPGTLVTISS VL: DIVLTQTPSSTSTAVGDTVTINCRASQSIGRNLAWFQQKPGQPPKLLIYRASNLASGVPSRFKGSGSRTQFTLTISGVQREDAATYYCLGSYSSSDTAFGGGTELEILR | no binding (tested: 150 ng IgG1 per well) | no binding (tested: 150 ng IgG1 per well) | no binding (tested: 150 ng IgG1 per well) | no binding (tested: 150 ng IgG1 per well) |
